± gives the uncertainty stated by the source.

A short description of this data set: self-splicing fitness, log relative to wild type (ln ratio); higher = more splicing; Tetrahymena group I intron in knt gene, E. coli kanamycin selection, DiMSum; sequences stand for … in CUCUCU…GGAGGGAAAAGUUAUCAGGCAUGCACCUGGUAGCUAGUCUUUAAACCAAUAGAUUGCAUCGGUUUAAAAGGCAAGACCGUCAAAUUGCGGGAAAGGGGUCAACAGCCGUUCAGUACCAAGUCUCAGGGGAAACUUUGAGAUGGCCUUGCAAAGGGUAUGGUAAUAAGCUGACGGACAUGGUCCUAACCACGCAGCCAAGUCCUAAGUCAACAGAUCUUCUGUUGAUAUGGAUGCAGUUCACAGACUAAAUGUCGGUCGGGGAAGAUGUAUUCUUCUCAUAAGAUAUAGUCGGACCUCUCCUUAAUGGGAGCUAGCGGAUGAAGUGAUGCAACACUGGAGCCGCUGGGAACUAAUUUGUAUGCGAAAGUAUAUUGAUUAGUUUUGGAGUACUCGUGGUCG
A digest of the protocol: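 Six replicate transformations of E. coli BL21(DE3) with a pET-22b(+) library were grown overnight at 37°C or 30°C. The library randomised all eight P1ex-region intron nucleotides, the intron lying in the knt kanamycin-resistance gene, and plates were LB agar with or without 25 μg/mL kanamycin plus 100 μg/mL carbenicillin, 50 μM IPTG and 0.2% rhamnose. Pooled colonies were amplicon-sequenced on an Illumina HiSeq 2500, and fitness is the DiMSum error-weighted combination of wild-type-normalised replicate fold changes, kanamycin versus none.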

As for UACCAGCAAUAUUACGGUUA, the “self-splicing fitness (ln)” value is -0.306 ± 0.063 (30 °C) and 0.23 ± 0.076 (37 °C).
On the same counts, the results for GGUAAGCAAUAUUACGUUUC are -3.52 ± 0.27 and 0.249 ± 0.15.
On the same counts, the results for CCCCAGCAAUAUUACGCGAG are -3.18 ± 0.15 and -3.14 ± 0.31.
For AGUUAGCAAUAUUACGCGGU, the “self-splicing fitness (ln)” value reads like this: (30 °C) -2.58 ± 0.14; (37 °C) -1.93 ± 0.18.
As for GGCGAGCAAUAUUACGCAAU, the “self-splicing fitness (ln)” value (30 °C) is -2.22 ± 0.12 and the “self-splicing fitness (ln)” value (37 °C) is -0.788 ± 0.13.
For UUUUAGCAAUAUUACGGUCU, the “self-splicing fitness (ln)” value by setting is: (30 °C) -2.23 ± 0.17; (37 °C) -1.35 ± 0.2.
As to UCGCAGCAAUAUUACGCCGC, the “self-splicing fitness (ln)” value (37 °C) was -1.21 ± 0.32.
Turning to UUGCAGCAAUAUUACGAGUU, the “self-splicing fitness (ln)” value was -4.24 ± 0.27 (30 °C) and -3.36 ± 0.37 (37 °C).
In the case of CCAGAGCAAUAUUACGCACU, the “self-splicing fitness (ln)” value (30 °C) was -2.9 ± 0.25.
Regarding GGGCAGCAAUAUUACGGUCC, the “self-splicing fitness (ln)” value by setting is: (30 °C) -4.03 ± 0.46; (37 °C) -2.14 ± 0.28.
The like results for CCCCAGCAAUAUUACGGUUU were, in that order, -3.85 ± 0.16 and -3.12 ± 0.21.
For the sequence UUCCAGCAAUAUUACGCAGC, the “self-splicing fitness (ln)” value is -3.77 ± 0.33 (30 °C) and -2.31 ± 0.35 (37 °C).
The like results for CUGUAGCAAUAUUACGCCAC were, in that order, -2.54 ± 0.25 and -2.09 ± 0.47.
On the same counts, the results for GCGAAGCAAUAUUACGAAUU are -2.58 ± 0.16 and -2.38 ± 0.3.
The like results for UCGAAGCAAUAUUACGGCAG were, in that order, -2.11 ± 0.097 and -0.963 ± 0.11.
Turning to CUGUAGCAAUAUUACGUCUG, the “self-splicing fitness (ln)” value by setting is: (30 °C) -0.298 ± 0.088; (37 °C) 0.128 ± 0.1.
The like results for UUCAAGCAAUAUUACGCUGG were, in that order, -2.29 ± 0.13 and -3.05 ± 0.24.
With CCAGAGCAAUAUUACGGUGU, the “self-splicing fitness (ln)” value reads like this: (30 °C) -3.53 ± 0.16; (37 °C) -2.7 ± 0.2.
On the same counts, the results for CCUCAGCAAUAUUACGCGGC are -3.25 ± 0.2 and -2.5 ± 0.2.
On the same counts, the results for AAUAAGCAAUAUUACGUACG are -0.966 ± 0.14 and -0.239 ± 0.17.
Take UGCCAGCAAUAUUACGAACG: the “self-splicing fitness (ln)” value was 0.252 ± 0.055 (30 °C) and 0.281 ± 0.067 (37 °C).
On the same counts, the results for GCCUAGCAAUAUUACGAGUC are -0.636 ± 0.14 and -0.0225 ± 0.18.
The like results for AUACAGCAAUAUUACGGGUU were, in that order, -1.9 ± 0.071 and -1.05 ± 0.077.
The like results for UGUUAGCAAUAUUACGAUAG were, in that order, -2.07 ± 0.26 and 0.173 ± 0.17.
For GUGAAGCAAUAUUACGACAG, the “self-splicing fitness (ln)” value is, setting by setting: (30 °C) -2.07 ± 0.16; (37 °C) -1.25 ± 0.17.
Turning to UGUUAGCAAUAUUACGCGGC, the “self-splicing fitness (ln)” value (37 °C) is -3.46 ± 0.29.
On to AAGGAGCAAUAUUACGUCCC, for which the “self-splicing fitness (ln)” value reads like this: (30 °C) 0.0851 ± 0.15; (37 °C) -1.06 ± 0.23.
The like results for UGAAAGCAAUAUUACGGAAA were, in that order, -1.83 ± 0.18 and -1.29 ± 0.17.
Regarding CGGGAGCAAUAUUACGAGUA, for the setting “30 °C”, the “self-splicing fitness (ln)” value was -2.74 ± 0.42.
Take AAAAAGCAAUAUUACGGUGU: the “self-splicing fitness (ln)” value reads like this: (30 °C) -2.13 ± 0.094; (37 °C) -1.39 ± 0.11.
On the same counts, the results for AACGAGCAAUAUUACGGCGU are -1.84 ± 0.098 and -0.572 ± 0.088.
On to ACUGAGCAAUAUUACGCUAC, for which the “self-splicing fitness (ln)” value (30 °C) was -3.24 ± 0.24.
In the case of AUACAGCAAUAUUACGACUA, the “self-splicing fitness (ln)” value by setting is: (30 °C) -0.177 ± 0.1; (37 °C) -0.541 ± 0.089.
On the same counts, the results for AAAUAGCAAUAUUACGGCCG are -0.799 ± 0.23 and 0.0219 ± 0.35.
On the same counts, the results for AUUUAGCAAUAUUACGGCCG are -1.29 ± 0.15 and -1.6 ± 0.15.
Take GGAAAGCAAUAUUACGUAAU: the “self-splicing fitness (ln)” value reads like this: (30 °C) -1.3 ± 0.07; (37 °C) -1.23 ± 0.12.
Regarding AUGAAGCAAUAUUACGCCUA, the “self-splicing fitness (ln)” value (30 °C) came to 0.118 ± 0.087 and the “self-splicing fitness (ln)” value (37 °C) is -0.0119 ± 0.14.
With CGAUAGCAAUAUUACGGGCA, the “self-splicing fitness (ln)” value is -2.06 ± 0.14 (30 °C) and -1.53 ± 0.15 (37 °C).
Take CUGAAGCAAUAUUACGCCGA: the “self-splicing fitness (ln)” value (30 °C) was -1.44 ± 0.22.
As for GCAAAGCAAUAUUACGAGGA, the “self-splicing fitness (ln)” value was -2.49 ± 0.13 (30 °C) and -1.83 ± 0.14 (37 °C).

The record behind these values is the supplement of paper PMC7877785.
